Laboratory results: IntAct's records for PubMed 16343974

B1: Membrane protein (Human SARS coronavirus), P59596 (parent)
chain: MADNGTITVEELKQLLEQWNLVIGFLFLAWIMLLQFAYSNRNRFLYIIKLVFLWLLWPVTLACFVLAAVYRINWVTGGIAIAMACIVGLMWLSYFVASFRLFARTRSMWSFNPETNILLNVPLRGTIVTRPLMESELVIGAVIIRGHLRMAGHSLGRCDIKDLPKEITVATSRTLSYYKLGASQRVGTDSGFAAYNRYRIGNYKLNTDHAGSNDNIALLVQ

Variants of: B1
Details: with ncap_sars N

Row | Variant | effect of a mutation on the interaction
1 | L218A;L219A | with no effect
